± gives the uncertainty stated by the source.
Assay: protein stability index of a GFP-peptide fusion (yeast GPS) (PSI 1-4); higher = more stable; sorted into four equal gates, so the index is relative within each strain
Summary of the method: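 Yeast carrying a pooled library were grown to mid-log phase in leucine-free medium. Each library plasmid expresses Cherry and has a tiled 17-residue yeast protein peptide fused downstream of GFP. Cells were sorted into four equal gates by GFP/Cherry ratio, and plasmids from each gate were PCR-amplified, Illumina-sequenced and assigned to strains by barcode. Summing, across gates, the read frequency times the gate number gave each peptide's protein stability index.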

| Sequence | protein stability index (doa10∆) | protein stability index (pdr5∆) | protein stability index (san1∆) | protein stability index (ubr1∆) |
| --- | --- | --- | --- | --- |
| QFAPAFLNTPNNNINEN [SSN2] | 2.92 ± 0.067 | 2.98 ± 0.063 | 2.66 ± 0.068 | 2.89 ± 0.06 |
| QFASPVRWIETQDVFLK [FAS2] | 2.3 ± 0.026 | 2.06 ± 0.022 | 2.25 ± 0.027 | 2.195 ± 0.018 |
| QFEIPISDDDDSALRYS [POP4] | 2.98 ± 0.071 | 2.75 ± 0.096 | 2.54 ± 0.049 | 3.16 ± 0.038 |
| QFISSRQFEVKQLQLAM [POP1] | 2.24 ± 0.051 | 2.45 ± 0.051 | 2.1 ± 0.067 | 1.74 ± 0.037 |
| QFNAITGLNGSGKSNIL [SMC2] | 3.31 ± 0.17 | 2.99 ± 0.13 | 3.18 ± 0.099 | 3.34 ± 0.067 |
| QFNATINPESREIVMPA [ITC1] | 1.87 ± 0.15 | 1.86 ± 0.17 | 1.7 ± 0.13 | 1.14 ± 0.19 |
| QFPEIAYPGKLICPQYG [CSL4] | 2.01 ± 0.054 | 2.11 ± 0.059 | 1.94 ± 0.1 | 2.17 ± 0.053 |
| QGIFKNSSNYFGELQFA [AAR2] | 2.36 ± 0.14 | 2.6 ± 0.1 | 2.41 ± 0.12 | 2.11 ± 0.12 |
| QGITRNVVNYLSINKNF [RPC17] | 1.31 ± 0.059 | 1.62 ± 0.051 | 1.23 ± 0.093 | 1.52 ± 0.038 |
| QHGFEVQVGPMKVFVTK [RPB7] | 2.26 ± 0.065 | 2.41 ± 0.079 | 2.43 ± 0.089 | 2.52 ± 0.09 |
| QHIYPSSTPGVANYSAM [GAL11] | 2.85 ± 0.11 | 2.7 ± 0.12 | 3.01 ± 0.11 | 2.81 ± 0.14 |
| QHLQQLKMQQQQQQQQQ [GAL11] | 2.21 ± 0.077 | 2.23 ± 0.059 | 2.02 ± 0.12 | 2.09 ± 0.061 |
| QHLRNEHGMNAPSVPEF [SNF2] | 2.86 ± 0.1 | 3.56 ± 0.13 | 2.96 ± 0.08 | 3.09 ± 0.061 |
| QHQSLSRSSSKNVNIED [ESC2] | 2.83 ± 0.18 | 2.69 ± 0.11 | 2.32 ± 0.11 | 3.04 ± 0.084 |
| QIEKKEIKKMIITNINA [YCG1] | 2.64 ± 0.11 | 2.75 ± 0.11 | 2.7 ± 0.13 | 2.47 ± 0.15 |
| QIEKKKICRGRMNTIIT [SIR4] | 3.52 ± 0.17 | 3.43 ± 0.14 | 3.52 ± 0.24 | 2.63 ± 0.27 |
| QIIQRDKINKYSLIRET [SNF5] | 1.39 ± 0.093 | 1.3 ± 0.13 |  | 1.15 ± 0.2 |
| QIISGNRVPDGFQDRSL [RPO31] | 3.17 ± 0.13 | 3.13 ± 0.13 | 3.06 ± 0.08 | 3.38 ± 0.2 |
| QINNVHLIPNEIKGASE [RPN4] | 2.84 ± 0.064 | 2.75 ± 0.059 | 2.42 ± 0.06 | 2.76 ± 0.052 |
| QINPTRETNDDIWRVAG [SNF2] | 2.6 ± 0.064 | 2.26 ± 0.066 | 2.25 ± 0.069 | 2.14 ± 0.052 |
| QKIMILQRTILNRIINH [RGR1] | 1.81 ± 0.068 | 1.83 ± 0.067 | 2 ± 0.076 | 1.7 ± 0.055 |
| QKKVLIDGPKAGVPRQA [RPL14A] | 3.45 ± 0.087 | 3.35 ± 0.084 | 3.05 ± 0.059 | 3.35 ± 0.073 |
| QKRQLHDISKTETSNED [SNU114] | 3.06 ± 0.049 | 2.97 ± 0.045 | 2.98 ± 0.039 | 3.044 ± 0.03 |
| QKSFEQLNSRAVAVVVD [RPN11] | 1.45 ± 0.12 | 1.72 ± 0.09 | 1.51 ± 0.16 | 1.48 ± 0.058 |
| QKVLNAHRQRAMEARSS [SMC4] | 1.95 ± 0.12 | 2.36 ± 0.15 | 1.98 ± 0.15 | 1.32 ± 0.073 |
| QLAGKSGEDTNVGLPIL [YOR098C/NUP1] | 2.86 ± 0.15 | 3.32 ± 0.084 | 3.36 ± 0.062 | 3.25 ± 0.052 |

| Sequence | protein stability index (doa10∆) | protein stability index (pdr5∆) | protein stability index (san1∆) | protein stability index (ubr1∆) |
| --- | --- | --- | --- | --- |
| QLAVRAPKGQNTLILRG [RPL18A] | 2.86 ± 0.28 |  |  |  |
| QLDEFKNKYLKDVLAQT [SWP82] | 2.52 ± 0.12 | 2.52 ± 0.15 | 2.4 ± 0.1 | 2.36 ± 0.057 |
| QLDSYLVNGFSQSQQKL [MED2] | 2.02 ± 0.05 | 2.35 ± 0.063 | 2.38 ± 0.064 | 2.72 ± 0.046 |
| QLEDESSRLEFVKGISR [YML103C/NUP188] | 3.45 ± 0.095 | 3.2 ± 0.11 | 3.33 ± 0.067 | 3.21 ± 0.099 |
| QLFNWCLMRSLHKLELK [DSN1] | 1.17 ± 0.058 | 1.26 ± 0.059 | 1.14 ± 0.13 | 1.19 ± 0.058 |
| QLFSTFDRLNGNDTISK [SSN2] | 3.03 ± 0.15 | 3.02 ± 0.087 | 3.19 ± 0.076 | 2.96 ± 0.048 |
| QLIFRQQTGLVDAITRC [SNU114] | 2.97 ± 0.087 | 2.69 ± 0.058 | 3.04 ± 0.052 | 2.47 ± 0.041 |
| QLKYDTSVQEKELMLQS [YIL149C/MLP2] | 2.23 ± 0.11 | 2.88 ± 0.17 | 2.81 ± 0.1 | 2.53 ± 0.12 |
| QLLDIAEFKKENLADLD [LIN1] | 1.48 ± 0.092 | 1.55 ± 0.097 | 1.24 ± 0.12 | 2.95 ± 0.096 |
| QLNEKLVGRLRKCETQK [YCS4] | 2.03 ± 0.086 | 1.44 ± 0.062 | 2.22 ± 0.1 | 2 ± 0.061 |
| QLVYKRGFGKINKQRVP [RPL7A] | 2.46 ± 0.071 | 2.4 ± 0.079 | 3.24 ± 0.11 | 2.85 ± 0.059 |
| QMDQQLQYTALTGSPNN [ARP7] | 2.91 ± 0.11 | 3.36 ± 0.096 | 3.33 ± 0.071 | 3.13 ± 0.063 |
| QMTQIMDIMEDFLRYIN [SNF2] | 1.21 ± 0.032 | 1.33 ± 0.034 | 1.4 ± 0.08 | 1.43 ± 0.027 |
| QNAADLQQICRVRNKDI [RPL9A] | 2.82 ± 0.088 | 3.3 ± 0.045 | 2.59 ± 0.087 | 2.89 ± 0.06 |
| QNDELTMGMRALLKLSV [DIS3] | 2.01 ± 0.094 | 2.49 ± 0.078 | 1.55 ± 0.067 | 2.7 ± 0.066 |
| QNFAEFMTKLLEVANDL [IRR1] | 2.06 ± 0.11 | 2.29 ± 0.097 | 3.13 ± 0.085 | 2.65 ± 0.14 |
| QNHNSKSTDNSAIRQVF [IRR1] | 2.61 ± 0.039 | 2.8 ± 0.037 | 2.85 ± 0.042 | 2.739 ± 0.027 |
| QNIETRQLANLIPFIVK [NUT1] | 1.61 ± 0.054 | 1.58 ± 0.041 | 1.41 ± 0.086 | 1.63 ± 0.039 |
| QNIMTLPDGKNGNLEEE [MED6] | 3.37 ± 0.064 | 3.23 ± 0.11 | 3.37 ± 0.056 | 3.31 ± 0.091 |
| QNKLFYITNADDSTKFQ [SIR3] | 2.96 ± 0.085 | 3.02 ± 0.084 | 3.01 ± 0.078 | 3.27 ± 0.067 |
| QNNEQNPIDPFNIIREF [YDL116W/NUP84] | 3.07 ± 0.052 | 3.15 ± 0.051 | 3.2 ± 0.04 | 3.17 ± 0.041 |
| QNRRLAFEELEGSWDRG [PRP8] | 2.91 ± 0.17 | 3.31 ± 0.17 | 3.24 ± 0.15 | 3.31 ± 0.16 |
| QNVAGDKTAVKLDTEVK [SWP82] |  |  |  | 3.32 ± 0.089 |
| QPAQPRESRIVSTEGNV [RPL21A] | 2.49 ± 0.07 | 2.83 ± 0.074 | 3.04 ± 0.069 | 2.87 ± 0.086 |
| QPMISPDNSIFGDTKSE [SWI3] | 3.14 ± 0.059 | 3.38 ± 0.087 | 2.94 ± 0.098 | 3.1 ± 0.061 |
| QPNARALERYDEAEGRF [SMC1] | 3.44 ± 0.12 | 3.58 ± 0.1 | 3.17 ± 0.074 | 3.29 ± 0.097 |
